Molecular target: the molecule itself
Assay: cryo-EM structure

B1: full-length mouse serotonin (3A) receptor (5-HT3AR) (receptor, UniProt P23979-2 24-483, looked up)
chain: SRRRATQARDTTQPALLRLSDHLLANYKKGVRPVRDWRKPTTVSIDVIMYAILNVDEKNQVLTTYIWYRQYWTDEFLQWTPEDFDNVTKLSIPTDSIWVPDILINEFVDVGKSPNIPYVYVHHRGEVQNYKPLQLVTACSLDIYNFPFDVQNCSLTFTSWLHTIQDINITLWRSPEEVRSDKSIFINQGEWELLEVFPQFKEFSIDISNSYAEMKFYVIIRRRPLFYAVSLLLPSIFLMVVDIVGFCLPPDSGERVSFKITLLLGYSVFLIIVSDTLPATAIGTPLIGVYFVVCMALLVISLAETIFIVRLVHKQDLQRPVPDWLRHLVLDRIAWILCLGEQPMAHRPPATFQANKTDDCSAMGNHCSHVGGPQDLEKTPRGRGSPLPPPREASLAVRGLLQELSSIRHFLEKRDEMREVARDWLRVGYVLDRLLFRIYLLAVLAYSITLVTLWSIWHYS
stoichiometry N: 5

— paper doi:10.1101/2020.03.30.016154 (bioRxiv, 2020)
